Laboratory results from article PMC4685956.

Target: H3.2–H4 tetramer (human) (UniProt Q71DI3)
Test: SEC-MALS

For “MCM2 HBD(43–160) (from UniProt P49736 43-160) (domain or fragment)”, the stoichiometry N (MCM2 HBD per H3–H4 tetramer) was 2.
